Data reported in the supplement of paper PMC5998384.

Columns and labels:
[1] = system: HeLa Kyoto; experiment: solubility in G1/S (NP-40 vs SDS abundance) (log2 ratio); higher = more soluble; conditions: cell cycle stage: G1/S
[2] = system: HeLa Kyoto; experiment: solubility change mitosis vs G1/S (difference of NP-40 vs SDS log2 ratios) (log2 ratio difference); higher = more soluble in mitosis
[3] = system: HeLa Kyoto; experiment: melting temperature (median over replicates), in situ; higher = more thermally stable
[4] = system: HeLa Kyoto; experiment: thermal stability score vs G1/S (z-score of summed log2 fold changes over temperatures); higher = more thermally stable than in G1/S
[5] = cell cycle stage: early G1 (4.5 h after nocodazole release)
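Wherever melting temperature (median over replicates), in situ is given: HeLa Kyoto cells synchronized by double thymidine or nocodazole block, proteins quantified by TMT10plex mass spectrometry, three independent biological replicates.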
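Wherever solubility change mitosis vs G1/S (difference of NP-40 vs SDS log2 ratios) is given: synchronized HeLa Kyoto cells (double thymidine block for G1/S, nocodazole release for mitosis), protein amounts in NP-40 versus SDS lysates quantified by mass spectrometry, three biological replicates.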
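Wherever solubility in G1/S (NP-40 vs SDS abundance) is given: HeLa Kyoto cells arrested at G1/S by double thymidine block, proteins quantified by TMT10plex mass spectrometry in mild NP-40 versus SDS extracts, three biological replicates.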
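Wherever thermal stability score vs G1/S (z-score of summed log2 fold changes over temperatures) is given: synchronized HeLa Kyoto cells, proteins quantified by TMT10plex mass spectrometry, three biological replicates, mitosis taken 0.5 h after nocodazole release, G1/S directly after double thymidine block.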

Row | Sequence | solubility in G1/S (log2) [1] | solubility change mitosis (log2) [2] | melting temperature ([3]; cell cycle stage: G1/S) | melting temperature ([3]; cell cycle stage: mitosis) | thermal stability score [4, 5] | thermal stability score ([4]; cell cycle stage: mitosis)
1 | MRLLPRLLLLLLLVFPATVLFRGGPRGLLAVAQDLTEDEETVEDSIIEDEDDEAEVEEDEPTDLVEDKEEEDVSGEPEASPSADTTILFVKGEDFPANNIVKFLVGFTNKGTEDFIVESLDASFRYPQDYQFYIQNFTALPLNTVVPPQRQATFEYSFIPAEPMGGRPFGLVINLNYKDLNGNVFQDAVFNQTVTVIEREDGLDGETIFMYMFLAGLGLLVIVGLHQLLESRKRKRPIQKVEMGTSSQNDVDMSWIPQETLNQINKASPRRLPRKRAQKRSVGSDE [SSR1] | 0.474 | 0.0174 | 57.4 °C | 58.8 °C | 0.9 | 0.359
2 | MRLREPLLSGSAAMPGASLQRACRLLVAVCALHLGVTLVYYLAGRDLSRLPQLVGVSTPLQGGSNSAAAIGQSSGELRTGGARPPPPLGASSQPRPGGDSSPVVDSGPGPASNLTSVPVPHTTALSLPACPEESPLLVGPMLIEFNMPVDLELVAKQNPNVKMGGRYAPRDCVSPHKVAIIIPFRNRQEHLKYWLYYLHPVLQRQQLDYGIYVINQAGDTIFNRAKLLNVGFQEALKDYDYTCFVFSDVDLIPMNDHNAYRCFSQPRHISVAMDKFGFSLPYVQYFGGVSALSKQQFLTINGFPNNYWGWGGEDDDIFNRLVFRGMSISRPNAVVGRCRMIRHSRDKKNEPNPQRFDRIAHTKETMLSDGLNSLTYQVLDVQRYPLYTQITVDIGTPS [B4GALT1] | -0.0686 | 0.0769 | 53.1 °C | 54 °C | -2.25 | -1.74
3 | MRLRGCGPRAAPASSAGASDARLLAPPGRNPFVHELRLSALQKAQVALMTLTLFPVRLLVAAAMMLLAWPLALVASLGSAEKEPEQPPALWRKVVDFLLKAIMRTMWFAGGFHRVAVKGRQALPTEAAILTLAPHSSYFDAIPVTMTMSSIVMKAESRDIPIWGTLIQYIRPVFVSRSDQDSRRKTVEEIKRRAQSNGKWPQIMIFPEGTCTNRTCLITFKPGAFIPGAPVQPVVLRYPNKLDTITWTWQGPGALEILWLTLCQFHNQVEIEFLPVYSPSEEEKRNPALYASNVRRVMAEALGVSVTDYTFEDCQLALAEGQLRLPADTCLLEFARLVRGLGLKPEKLEKDLDRYSERARMKGGEKIGIAEFAASLEVPVSDLLEDMFSLFDESGSGEVDLRECVVALSVVCRPARTLDTIQLAFKMYGAQEDGSVGEGDLSCILKTALGVAELTVTDLFRAIDQEEKGKITFADFHRFAEMYPAFAEEYLYPDQTHFESCAETSPAPIPNGFCADFSPENSDAGRKPVRKKLD [LPCAT1] | -0.209 | -0.086 | 52 °C | 52.6 °C | 2.41 | 3.77
4 | MRLSWFRVLTVLSICLSAVATATGAEGKRKLQIGVKKRVDHCPIKSRKGDVLHMHYTGKLEDGTEFDSSLPQNQPFVFSLGTGQVIKGWDQGLLGMCEGEKRKLVIPSELGYGERGAPPKIPGGATLVFEVELLKIERRTEL [FKBP2] | 0.262 | -0.0211 | 53.1 °C | 54.8 °C | 1.33 | 1.16
5 | MRLTRCQAALAAAITLNLLVLFYVSWLQHQPRNSRARGPRRASAAGPRVTVLVREFEAFDNAVPELVDSFLQQDPAQPVVVAADTLPYPPLALPRIPNVRLALLQPALDRPAAASRPETYVATEFVALVPDGARAEAPGLLERMVEALRAGSARLVAAPVATANPARCLALNVSLREWTARYGAAPAAPRCDALDGDAVVLLRARDLFNLSAPLARPVGTSLFLQTALRGWAVQLLDLTFAAARQPPLATAHARWKAEREGRARRAALLRALGIRLVSWEGGRLEWFGCNKETTRCFGTVVGDTPAYLYEERWTPPCCLRALRETARYVVGVLEAAGVRYWLEGGSLLGAARHGDIIPWDYDVDLGIYLEDVGNCEQLRGAEAGSVVDERGFVWEKAVEGDFFRVQYSESNHLHVDLWPFYPRNGVMTKDTWLDHRQDVEFPEHFLQPLVPLPFAGFVAQAPNNYRRFLELKFGPGVIENPQYPNPALLSLTGSG [FKRP] | 0.127 | 0.00852 | 54.5 °C | 55.1 °C | -1.33 | 0.366
6 | MRPGAPGPLWPLPWGALAWAVGFVSSMGSGNPAPGGVCWLQQGQEATCSLVLQTDVTRAECCASGNIDTAWSNLTHPGNKINLLGFLGLVHCLPCKDSCDGVECGPGKACRMLGGRPRCECAPDCSGLPARLQVCGSDGATYRDECELRAARCRGHPDLSVMYRGRCRKSCEHVVCPRPQSCVVDQTGSAHCVVCRAAPCPVPSSPGQELCGNNNVTYISSCHMRQATCFLGRSIGVRHAGSCAGTPEEPPGGESAEEEENFV [FSTL3] | -0.141 | 0.0887 | 51.7 °C | 54.8 °C | 2.88 | 2.67
7 | MRPGGERPVEGGACNGRSELELLKLRSAECIDEAAERLGALSRAIWSQPELAYEEHHAHRVLTHFFEREPPAASWAVQPHYQLPTAFRAEWEPPEARAPSATPRPLHLGFLCEYDALPGIGHACGHNLIAEVGAAAALGVRGALEGLPRPPPPVKVVVLGTPAEEDGGGKIDLIEAGAFTNLDVVFMAHPSQENAAYLPDMAEHDVTVKYYGKASHSASYPWEGLNALDAAVLAYNNLSVFRQQMKPTWRVHGIIKNGGVKPNIIPSYSELIYYFRAPSMKELQVLTKKAEDCFRAAALASGCTVEIKGGAHDYYNVLPNKSLWKAYMENGRKLGIEFISEDTMLNGPSGSTDFGNVSFVVPGIHPYFHIGSNALNHTEQYTEAAGSQEAQFYTLRTAKALAMTALDVIFKPELLEGIREDFKLKLQEEQFVNAVE [PM20D2] | 0.167 | 0.0574 | 52.7 °C | 52.2 °C | -0.942 | -1.84
8 | MRPLLLLALLGWLLLAEAKGDAKPEDNLLVLTVATKETEGFRRFKRSAQFFNYKIQALGLGEDWNVEKGTSAGGGQKVRLLKKALEKHADKEDLVILFADSYDVLFASGPRELLKKFRQARSQVVFSAEELIYPDRRLETKYPVVSDGKRFLGSGGFIGYAPNLSKLVAEWEGQDSDSDQLFYTKIFLDPEKREQINITLDHRCRIFQNLDGALDEVVLKFEMGHVRARNLAYDTLPVLIHGNGPTKLQLNYLGNYIPRFWTFETGCTVCDEGLRSLKGIGDEALPTVLVGVFIEQPTPFVSLFFQRLLRLHYPQKHMRLFIHNHEQHHKAQVEEFLAQHGSEYQSVKLVGPEVRMANADARNMGADLCRQDRSCTYYFSVDADVALTEPNSLRLLIQQNKNVIAPLMTRHGRLWSNFWGALSADGYYARSEDYVDIVQGRRVGVWNVPYISNIYLIKGSALRGELQSSDLFHHSKLDPDMAFCANIRQQDVFMFLTNRHTLGHLLSLDSYRTTHLHNDLWEVFSNPEDWKEKYIHQNYTKALAGKLVETPCPDVYWFPIFTEVACDELVEEMEHFGQWSLGNNKDNRIQGGYENVPTIDIHMNQIGFEREWHKFLLEYIAPMTEKLYPGYYTRAQFDLAFVVRYKPDEQPSLMPHHDASTFTINIALNRVGVDYEGGGCRFLRYNCSIRAPRKGWTLMHPGRLTHYHEGLPTTRGTRYIAVSFVDP [PLOD1] | -0.0992 | -0.0758 | 54.3 °C | 54.5 °C | 3.69 | 3.91
9 | MRPLPGALGVAAAAALWLLLLLLPRTRADEHEHTYQDKEEVVLWMNTVGPYHNRQETYKYFSLPFCVGSKKSISHYHETLGEALQGVELEFSGLDIKFKDDVMPATYCEIDLDKEKRDAFVYAIKNHYWYQMYIDDLPIWGIVGEADENGEDYYLWTYKKLEIGFNGNRIVDVNLTSEGKVKLVPNTKIQMSYSVKWKKSDVKFEDRFDKYLDPSFFQHRIHWFSIFNSFMMVIFLVGLVSMILMRTLRKDYARYSKEEEMDDMDRDLGDEYGWKQVHGDVFRPSSHPLIFSSLIGSGCQIFAVSLIVIIVAMIEDLYTERGSMLSTAIFVYAATSPVNGYFGGSLYARQGGRRWIKQMFIGAFLIPAMVCGTAFFINFIAIYYHASRAIPFGTMVAVCCICFFVILPLNLVGTILGRNLSGQPNFPCRVNAVPRPIPEKKWFMEPAVIVCLGGILPFGSIFIEMYFIFTSFWAYKIYYVYGFMMLVLVILCIVTVCVTIVCTYFLLNAEDYRWQWTSFLSAASTAIYVYMYSFYYYFFKTKMYGLFQTSFYFGYMAVFSTALGIMCGAIGYMGTSAFVRKIYTNVKID [TM9SF3] | -0.181 | -0.173 | 53.5 °C | 53.4 °C | 2.92 | 5.14
